Results from patent US20220403392 (published 2022).

B1: RA 5' + 5' fiber (mixed)
DNA 1: GGTTGGTGTGGTTGGTGGTTGGTGTGGTTGGTTTTCCCTTTAGGGAATGACCCTGAAGTTCATCTGCACCACCGAGGGAAATCCCTT
DNA 2: GGTTGGTGTGGTTGGTGGTTGGTGTGGTTGGTTTTTCCCTAAAGGGATGACCCTGAAGTTCATCTGCACCACCGAAGGGATTTCCCT
DNA 3: CGGTGGTGCAGATGAACTTCAGGGTCA
B2: RA 5' + 3' fiber (mixed)
DNA 1: GGTTGGTGTGGTTGGTGGTTGGTGTGGTTGGTTTTCCCTTTAGGGAATGACCCTGAAGTTCATCTGCACCACCGAGGGAAATCCCTT
DNA 2: TTCCCTAAAGGGATGACCCTGAAGTTCATCTGCACCACCGAAGGGATTTCCCTTTTGGTTGGTGTGGTTGGTGGTTGGTGTGGTTGG
DNA 3: CGGTGGTGCAGATGAACTTCAGGGTCA
B3: RA 5'3' + 5'3' fiber (mixed)
DNA 1: GGTTGGTGTGGTTGGTGGTTGGTGTGGTTGGTTTTCCCTTTAGGGAATGACCCTGAAGTTCATCTGCACCACCGAGGGAAATCCCTTTTTGGTTGGTGTGGTTGGTGGTTGGTGTGGTTGG
DNA 2: GGTTGGTGTGGTTGGTGGTTGGTGTGGTTGGTTTTTCCCTAAAGGGATGACCCTGAAGTTCATCTGCACCACCGAAGGGATTTCCCTTTTGGTTGGTGTGGTTGGTGGTTGGTGTGGTTGG
DNA 3: CGGTGGTGCAGATGAACTTCAGGGTCA
B4: RA 3' + 3' fiber (mixed)
DNA 1: TCCCTTTAGGGAATGACCCTGAAGTTCATCTGCACCACCGAGGGAAATCCCTTTTTGGTTGGTGTGGTTGGTGGTTGGTGTGGTTGG
DNA 2: TTCCCTAAAGGGATGACCCTGAAGTTCATCTGCACCACCGAAGGGATTTCCCTTTTGGTTGGTGTGGTTGGTGGTTGGTGTGGTTGG
DNA 3: CGGTGGTGCAGATGAACTTCAGGGTCA
B5: NU 3' + 5' fiber (mixed)
DNA 1: TCCCTTTAGGGAATGACCCTGAAGTTCATCTGCACCACCGAGGGAAATCCCTTTTTCGCCTAGGTTGGGTAGGGTGGTGGCG
DNA 2: CGCCTAGGTTGGGTAGGGTGGTGGCGTTTTTCCCTAAAGGGATGACCCTGAAGTTCATCTGCACCACCGAAGGGATTTCCCT
DNA 3: CGGTGGTGCAGATGAACTTCAGGGTCA

target: thrombin (Homo sapiens, UniProt P00734;P00734 P00734:328-363,P00734:364-622); experiment: inhibition; TT, plasma alone 16.3 s; about 0.5 uM in human plasma, 37 C

activity, > 60 s:
B1
B2
B3
B4
B5
